From paper PMC9970071

How the values were obtained:
[1] = target: Truncated TBEV C protein C_(18-93), containing residues 18-93, Kuutsalo-14 strain (tick-borne encephalitis virus (TBEV-Eu), strain Kuutsalo-14); experiment: SEC
[2] = target: Full-length TBEV C protein (residues 1-96), Kuutsalo-14 strain (tick-borne encephalitis virus (TBEV-Eu), strain Kuutsalo-14); experiment: SEC

Substance	stoichiometry N [1]	stoichiometry N [2]
Truncated TBEV C protein C_(18-93), containing residues 18-93, Kuutsalo-14 strain (domain or fragment)	2	–
Full-length TBEV C protein (residues 1-96), Kuutsalo-14 strain (natural protein)	–	2
